B1: Keratin, type II cytoskeletal 6A (Homo sapiens), P02538 (parent)
chain: MASTSTTIRSHSSSRRGFSANSARLPGVSRSGFSSVSVSRSRGSGGLGGACGGAGFGSRSLYGLGGSKRISIGGGSCAISGGYGSRAGGSYGFGGAGSGFGFGGGAGIGFGLGGGAGLAGGFGGPGFPVCPPGGIQEVTVNQSLLTPLNLQIDPTIQRVRAEEREQIKTLNNKFASFIDKVRFLEQQNKVLETKWTLLQEQGTKTVRQNLEPLFEQYINNLRRQLDSIVGERGRLDSELRGMQDLVEDFKNKYEDEINKRTAAENEFVTLKKDVDAAYMNKVELQAKADTLTDEINFLRALYDAELSQMQTHISDTSVVLSMDNNRNLDLDSIIAEVKAQYEEIAQRSRAEAESWYQTKYEELQVTAGRHGDDLRNTKQEIAEINRMIQRLRSEIDHVKKQCANLQAAIADAEQRGEMALKDAKNKLEGLEDALQKAKQDLARLLKEYQELMNVKLALDVEIATYRKLLEGEECRLNGEGVGQVNISVVQSTVSSGYGGASGVGSGLGLGGGSSYSYGSGLGVGGGFSSSSGRAIGGGLSSVGGGSSTIKYTTTSSSSRKSYKH
B2: Fructose-1,6-bisphosphatase 1 (Homo sapiens), P09467 (parent)
chain: MADQAPFDTDVNTLTRFVMEEGRKARGTGELTQLLNSLCTAVKAISSAVRKAGIAHLYGIAGSTNVTGDQVKKLDVLSNDLVMNMLKSSFATCVLVSEEDKHAIIVEPEKRGKYVVCFDPLDGSSNIDCLVSVGTIFGIYRKKSTDEPSEKDALQPGRNLVAAGYALYGSATMLVLAMDCGVNCFMLDPAIGEFILVDKDVKIKKKGKIYSLNEGYARDFDPAVTEYIQRKKFPPDNSAPYGARYVGSMVADVHRTLVYGGIFLYPANKKSPNGKLRLLYECNPMAYVMEKAGGMATTGKEAVLDVIPTDIHQRAPVILGSPDDVLEFLKVYEKHSAQ
partner: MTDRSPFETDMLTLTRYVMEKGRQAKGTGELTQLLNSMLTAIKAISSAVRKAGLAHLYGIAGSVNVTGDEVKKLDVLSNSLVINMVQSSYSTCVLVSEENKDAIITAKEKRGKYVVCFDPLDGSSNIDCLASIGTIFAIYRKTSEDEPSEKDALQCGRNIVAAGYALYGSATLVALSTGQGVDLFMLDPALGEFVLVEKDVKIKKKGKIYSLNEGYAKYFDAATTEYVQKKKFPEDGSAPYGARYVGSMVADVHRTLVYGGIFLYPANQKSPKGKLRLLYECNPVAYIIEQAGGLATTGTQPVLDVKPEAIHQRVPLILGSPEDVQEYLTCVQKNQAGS

Legend:
KRT15, P19012 = variants of: B1; details: with KRT15, P19012
Chain of KRT15, P19012 (P19012 whole entry): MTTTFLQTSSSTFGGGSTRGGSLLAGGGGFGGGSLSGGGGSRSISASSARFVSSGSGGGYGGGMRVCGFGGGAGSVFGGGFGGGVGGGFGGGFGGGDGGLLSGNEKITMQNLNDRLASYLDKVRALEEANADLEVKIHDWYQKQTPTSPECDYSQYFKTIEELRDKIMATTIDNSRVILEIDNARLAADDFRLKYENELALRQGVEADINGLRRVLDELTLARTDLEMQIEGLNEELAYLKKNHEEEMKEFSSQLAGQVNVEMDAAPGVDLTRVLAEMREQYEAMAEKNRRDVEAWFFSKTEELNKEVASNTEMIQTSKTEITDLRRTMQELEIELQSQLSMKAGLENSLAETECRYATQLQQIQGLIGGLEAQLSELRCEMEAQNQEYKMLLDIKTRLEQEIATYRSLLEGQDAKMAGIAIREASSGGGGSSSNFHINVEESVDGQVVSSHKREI

KRT40, Q6A162 = variants of: B1; details: with KRT40, Q6A162
Chain of KRT40, Q6A162 (Q6A162 whole entry): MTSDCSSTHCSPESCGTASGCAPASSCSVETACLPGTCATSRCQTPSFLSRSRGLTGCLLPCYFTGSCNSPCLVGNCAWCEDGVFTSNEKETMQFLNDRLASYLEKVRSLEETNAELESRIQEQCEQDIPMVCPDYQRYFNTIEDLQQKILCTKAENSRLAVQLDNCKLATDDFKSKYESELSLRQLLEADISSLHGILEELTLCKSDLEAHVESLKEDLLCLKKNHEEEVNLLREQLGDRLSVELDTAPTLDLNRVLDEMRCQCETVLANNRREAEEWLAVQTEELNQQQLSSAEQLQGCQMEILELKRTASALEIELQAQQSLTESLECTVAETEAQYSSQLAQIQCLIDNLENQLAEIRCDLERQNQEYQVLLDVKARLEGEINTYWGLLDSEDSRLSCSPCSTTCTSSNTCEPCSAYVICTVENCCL

k1h1_human KRT31, Q15323 = variants of: B1; details: with k1h1_human KRT31, Q15323
Chain of k1h1_human KRT31, Q15323 (Q15323 whole entry): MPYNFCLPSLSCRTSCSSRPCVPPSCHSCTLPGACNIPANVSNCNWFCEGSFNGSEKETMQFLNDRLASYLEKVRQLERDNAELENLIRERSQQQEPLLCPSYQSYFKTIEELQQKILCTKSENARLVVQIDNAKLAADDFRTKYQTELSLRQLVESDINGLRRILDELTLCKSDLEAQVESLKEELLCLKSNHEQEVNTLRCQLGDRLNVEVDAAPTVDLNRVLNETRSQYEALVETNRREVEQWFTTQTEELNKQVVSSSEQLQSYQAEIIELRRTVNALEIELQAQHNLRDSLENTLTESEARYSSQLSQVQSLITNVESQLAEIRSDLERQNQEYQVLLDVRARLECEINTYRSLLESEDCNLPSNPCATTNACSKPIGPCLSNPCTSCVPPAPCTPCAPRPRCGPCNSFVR

[1] = variants of: B1; details: with tfp11_human TFIP11, Q9UBB9
Chain of tfp11_human TFIP11, Q9UBB9 (Q9UBB9 whole entry): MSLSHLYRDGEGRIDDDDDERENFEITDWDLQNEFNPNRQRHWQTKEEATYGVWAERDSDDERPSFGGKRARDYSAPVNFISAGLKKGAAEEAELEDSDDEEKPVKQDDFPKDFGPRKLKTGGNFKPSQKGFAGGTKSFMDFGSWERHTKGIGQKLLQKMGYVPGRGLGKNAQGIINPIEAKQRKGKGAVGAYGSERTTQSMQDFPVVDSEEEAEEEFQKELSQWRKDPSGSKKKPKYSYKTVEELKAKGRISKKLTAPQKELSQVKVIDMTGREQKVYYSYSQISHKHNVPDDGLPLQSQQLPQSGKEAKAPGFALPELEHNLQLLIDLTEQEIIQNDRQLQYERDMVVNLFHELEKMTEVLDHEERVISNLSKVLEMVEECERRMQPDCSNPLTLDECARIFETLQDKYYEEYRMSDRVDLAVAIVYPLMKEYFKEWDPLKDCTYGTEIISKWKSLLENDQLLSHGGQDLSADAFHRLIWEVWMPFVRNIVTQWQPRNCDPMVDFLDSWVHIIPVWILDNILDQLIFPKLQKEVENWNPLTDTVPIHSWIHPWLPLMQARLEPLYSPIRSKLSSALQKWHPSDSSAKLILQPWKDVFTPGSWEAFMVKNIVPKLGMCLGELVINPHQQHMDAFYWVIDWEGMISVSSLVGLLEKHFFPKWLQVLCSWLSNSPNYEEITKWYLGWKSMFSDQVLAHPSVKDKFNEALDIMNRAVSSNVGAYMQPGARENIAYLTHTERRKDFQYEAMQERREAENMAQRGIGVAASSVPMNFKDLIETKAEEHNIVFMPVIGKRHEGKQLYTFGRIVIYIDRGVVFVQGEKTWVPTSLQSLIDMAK

[2] = variants of: B1; details: with goga2_human GOLGA2, Q08379
Chain of goga2_human GOLGA2, Q08379 (Q08379 whole entry): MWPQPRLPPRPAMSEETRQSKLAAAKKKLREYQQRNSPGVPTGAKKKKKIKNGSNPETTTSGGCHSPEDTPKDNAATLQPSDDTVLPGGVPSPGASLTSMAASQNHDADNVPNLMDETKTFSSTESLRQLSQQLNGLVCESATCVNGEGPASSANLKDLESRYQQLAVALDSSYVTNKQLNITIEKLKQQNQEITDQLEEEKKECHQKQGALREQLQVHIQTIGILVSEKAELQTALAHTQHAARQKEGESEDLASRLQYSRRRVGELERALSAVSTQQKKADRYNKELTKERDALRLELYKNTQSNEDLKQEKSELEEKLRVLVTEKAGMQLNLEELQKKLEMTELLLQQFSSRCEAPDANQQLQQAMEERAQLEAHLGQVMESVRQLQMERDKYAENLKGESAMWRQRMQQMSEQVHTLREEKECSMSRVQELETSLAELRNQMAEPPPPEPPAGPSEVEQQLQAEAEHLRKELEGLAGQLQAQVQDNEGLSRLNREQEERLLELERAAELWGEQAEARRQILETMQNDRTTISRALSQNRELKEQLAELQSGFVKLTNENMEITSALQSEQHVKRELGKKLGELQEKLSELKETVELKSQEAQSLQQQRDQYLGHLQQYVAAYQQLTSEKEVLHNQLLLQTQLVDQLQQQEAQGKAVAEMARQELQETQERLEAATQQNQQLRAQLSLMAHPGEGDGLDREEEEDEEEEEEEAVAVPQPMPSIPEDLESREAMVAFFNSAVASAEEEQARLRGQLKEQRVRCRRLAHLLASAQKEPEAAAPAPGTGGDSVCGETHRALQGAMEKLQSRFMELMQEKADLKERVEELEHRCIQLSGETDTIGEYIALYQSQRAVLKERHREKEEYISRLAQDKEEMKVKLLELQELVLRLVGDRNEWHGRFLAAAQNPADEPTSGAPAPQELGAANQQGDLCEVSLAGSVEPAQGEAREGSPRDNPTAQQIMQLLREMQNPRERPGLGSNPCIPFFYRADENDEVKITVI

FBP2, O00757 = variants of: B2; details: with FBP2, O00757

| effect of a mutation on the interaction (KRT15, P19012) | effect of a mutation on the interaction (KRT40, Q6A162) | effect of a mutation on the interaction (k1h1_human KRT31, Q15323) | effect of a mutation on the interaction [1] | effect of a mutation on the interaction [2] | effect of a mutation on the interaction (FBP2, O00757) | Variant |
| --- | --- | --- | --- | --- | --- | --- |
| with no effect | with no effect | with no effect | with no effect | with no effect |  | MASTSTTIRSHSSSRRGFSANSARLPGVSRSGFSSVSVSRSRGSGGLGGACGGAGFGSRSLYGLGGSKRISIGGGSCAISGGYGSRAGGSYGFGGAGSGFGFGGGAGIGFGLGGGAGLAGGFGGPGFPVCPPGGIQEVTVNQSLLTPLNLQIDPTIQRVRAEEREQIKTLNNKFASFIDKVRFLEQQNKVLETKWTLLQEQGTKTVRQNLEPLFEQYINNLRRQLDSIVGERGRLDSELRGMQDLVEDFKNKYEDEINKRTAAENEFVTLKKDVDAAYMNKVELQAKADTLTDEINFLRALYDAELSQMQTHISDTSVVLSMDNNRNLDLDSIIAEVKAQYEEIAQRSRAEAESWYQTKYEELQVTAGRHGDDLRNTKQEIAEINRMIQRLRSEIDHVKKQCANLQAAIADAEQRGEMALKDAKNKLEGLEDALQKAKQDLARLLKEYQELMNVKLALDVEIATYRKLLEGEECRLNGEGVGQVNISVVQSTVSSGYGGASGVGSGLGLGGGSSYSYGSGLGFGGGFSSSSGRAIGGGLSSVGGGSSTIKYTTTSSSSRKSYKH [V523F] |
| with no effect | with no effect | with no effect | with no effect | with no effect |  | MASTSTTIRSHSSSRRGFSANSARLPGVSRSGFSSVSVSRSRGSGGLGGACGGAGFGSRSLYGLGGSKRISIGGGSCAISGGYGSRAGGSYGFGGAGSGFGFGGGAGIGFGLGGGAGLAGGFGGPGFPVCPPGGIQEVTVNQSLLTPLNLQIDPTIQRVRAEEREQIKTLNNKFASFIDKVRFLEQQNKVLETKWTLLQEQGTKTVRQNLEPLFEQYINNLRRQLDSIVGERGRLDSELRGMQDLVEDFKNKYEDEINKRTAAENEFVTLKKDVDAAYMNKVELQAKADTLTDEINFLRALYDAELSQMQTHISDTSVVLSMDNNRNLDLDSIIAEVKAQYEEIAQRSRAEAESWYQTKYEELQVTAGRHGDDLRNTKQEIAEINRMIQRLRSEIDHVKKQCANLQAAIADAEQRGEMALKDAKNKLEGLEDALQKAKQDLARLLKEYQELMNVKLALDVEIATYRKLLEGEECRLNGEGVGQVNISVVQSTVSSGYGGASGVGSGLGLGGGSSYSYGSGLGVGGGFSSSSGRAIGGGLSSVGGGSSTIKYSTTSSSSRKSYKH [T552S] |
|  |  |  |  |  | with no effect | MADQAPFDTDVNTLTRFVMEEGRKARGTGELTQLLNSLCTAVKAISSAVRKAGIAHLYGIAGSTNVTGDQVKKLDVLSNDLVMNMLKSSFATCVLVSEEDKHAIIVEPEKRGKYVVCFDPLDGSSNIDCLVSVGTIFGIYRKKSTDEPSEKDALQPGRNLVAASYALYGSATMLVLAMDCGVNCFMLDPAIGEFILVDKDVKIKKKGKIYSLNEGYARDFDPAVTEYIQRKKFPPDNSAPYGARYVGSMVADVHRTLVYGGIFLYPANKKSPNGKLRLLYECNPMAYVMEKAGGMATTGKEAVLDVIPTDIHQRAPVILGSPDDVLEFLKVYEKHSAQ [G164S] |

— IntAct's records for PubMed 25910212
